Changes are numbered by the printed parent chain. Where “and” joins values, the source holds several entries; their conditions need not be identical. Equal entries are not always repeated.
T1: extracellular domain of human CD73 protein (CD73-ECD), C-terminus polyhistidine-tagged (UniProt P21589 27-547)
T1 chain: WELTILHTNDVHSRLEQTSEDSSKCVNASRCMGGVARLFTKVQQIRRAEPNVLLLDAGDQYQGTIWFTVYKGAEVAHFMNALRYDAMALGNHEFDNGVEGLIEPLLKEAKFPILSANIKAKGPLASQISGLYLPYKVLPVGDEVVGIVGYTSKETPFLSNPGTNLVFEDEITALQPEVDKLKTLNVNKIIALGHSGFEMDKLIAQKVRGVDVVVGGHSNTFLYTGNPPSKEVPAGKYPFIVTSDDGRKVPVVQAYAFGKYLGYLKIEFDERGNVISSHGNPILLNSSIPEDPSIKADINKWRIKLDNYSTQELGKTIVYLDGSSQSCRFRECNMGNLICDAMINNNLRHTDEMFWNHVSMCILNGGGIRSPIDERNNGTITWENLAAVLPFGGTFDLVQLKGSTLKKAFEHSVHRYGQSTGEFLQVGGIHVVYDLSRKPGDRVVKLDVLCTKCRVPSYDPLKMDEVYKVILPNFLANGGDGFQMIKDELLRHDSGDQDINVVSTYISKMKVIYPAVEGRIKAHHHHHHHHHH

T2: CD73 on the surface of human tumor cells (human, UniProt P21589 27-549)
T2 chain: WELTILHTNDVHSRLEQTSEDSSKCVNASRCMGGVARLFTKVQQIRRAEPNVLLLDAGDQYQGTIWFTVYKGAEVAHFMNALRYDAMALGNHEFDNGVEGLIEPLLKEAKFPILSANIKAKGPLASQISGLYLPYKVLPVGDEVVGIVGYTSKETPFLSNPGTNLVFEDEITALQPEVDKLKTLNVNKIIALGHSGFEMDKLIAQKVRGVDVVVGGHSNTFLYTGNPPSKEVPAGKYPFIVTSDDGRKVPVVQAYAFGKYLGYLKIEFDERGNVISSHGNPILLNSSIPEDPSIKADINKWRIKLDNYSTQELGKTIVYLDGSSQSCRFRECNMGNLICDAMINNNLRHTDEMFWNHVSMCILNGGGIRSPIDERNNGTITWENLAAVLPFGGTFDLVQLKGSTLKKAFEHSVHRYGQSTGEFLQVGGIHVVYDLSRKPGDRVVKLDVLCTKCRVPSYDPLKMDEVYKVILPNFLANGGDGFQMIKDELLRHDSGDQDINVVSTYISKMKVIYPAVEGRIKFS

T3: Carbon-terminal polyhistidine-labeled recombinant cynomolgus monkey CD73 enzyme (cynomolgus monkey, UniProt A0A2K5V5U7 1-547)
T3 chain: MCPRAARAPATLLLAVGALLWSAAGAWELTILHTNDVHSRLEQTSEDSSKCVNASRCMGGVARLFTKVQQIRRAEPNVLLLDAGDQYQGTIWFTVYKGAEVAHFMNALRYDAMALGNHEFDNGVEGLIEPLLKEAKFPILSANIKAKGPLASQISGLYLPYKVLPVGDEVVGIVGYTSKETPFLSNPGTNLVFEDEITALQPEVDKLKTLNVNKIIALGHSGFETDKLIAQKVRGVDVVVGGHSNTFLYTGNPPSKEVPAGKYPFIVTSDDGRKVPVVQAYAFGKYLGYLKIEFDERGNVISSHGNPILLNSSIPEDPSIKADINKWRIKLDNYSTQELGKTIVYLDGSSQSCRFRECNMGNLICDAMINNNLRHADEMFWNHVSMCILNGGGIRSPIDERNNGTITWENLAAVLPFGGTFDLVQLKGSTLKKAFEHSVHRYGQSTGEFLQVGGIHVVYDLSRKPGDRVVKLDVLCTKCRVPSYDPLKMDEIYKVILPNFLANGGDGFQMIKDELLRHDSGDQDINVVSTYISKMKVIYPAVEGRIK

B1: mAb002c-VH-QG (antibody, V domains shown)
VH: QVQLQQPGAELVKPGASVRLSCKASGYTLTSYWMHWVKKRPGQGLEWIGEINPSQGRSNYNEKFKSKATLTVDRSSSTVYMQLGSLTSEDSAVYYCARRGVSGNYFDYWGQGTTLTVSS
VL: DIKMTQSPSSMYASLGERVTMTCKASQDINTYLSWFQQKPGKSPKTLIYRSNILVDGVPSRFSGSRSGQDYYLTITSLEYEDMGIYYCLQYDEFPYTFGGGTKLELK
B2: mAb002c-VK-SG (antibody, V domains shown)
VH: B1 VH with Q55N
VL: B1 VL with D56S
B3: mAb002c-VH-NA (antibody, V domains shown)
VH: B1 VH with Q55N, G56A
VL: B1 VL
B4: Hu001c-24 (antibody, V domains shown)
VH: QVQLVQSGAEVKKPGASVKVSCKTSGYTFTNYYIYWVKQRPGQGLEWIGWIYPGNLNIKYNEKFKGRVTITADKSASTAYMELSSLRSEDTAVYYCARDDNYAWFAYWGQGTLVTVSS
VL: DIQMTQSPSSLSASVGDRVTITCKASQDVSTAVAWYQQKPGKAPKLLIYWTNTRHTGVPSRFSGSGSGTDHTLTISSLQPEDFATYYCQQHYSTPFTFGQGTKLEIK
B5: Hu001c-23 (antibody, V domains shown)
VH: B4 VH with T24A
VL: B4 VL
B6: Hu001c-28 (antibody, V domains shown)
VH: B4 VH
VL: B4 VL with A43S
B7: Hu001c-14 (antibody, V domains shown)
VH: B4 VH with K38R, R40A, G44R, I48M, K74T
VL: B4 VL
B8: Hu001c-22 (antibody, V domains shown)
VH: B4 VH with T24A, G44R
VL: B4 VL
B9: mAb002c-VH-QG/VK-SG (antibody, V domains shown)
VH: B1 VH
VL: B1 VL with D56S
B10: Hu001c-31 (antibody, V domains shown)
VH: B4 VH with T24A, K38R, R40A, G44R, V68S, I70L
VL: B4 VL
B11: Hu001c-30 (antibody, V domains shown)
VH: B4 VH with T24A, G44R, V68S, I70L
VL: B4 VL with H71F
B12: Hu001c-25 (antibody, V domains shown)
VH: B4 VH with T24A, K38R, R40A, G44R
VL: B4 VL with A43S
B13: Hu001c-21 (antibody, V domains shown)
VH: B4 VH with T24A, K38R, R40A, G44R
VL: B4 VL
B14: Hu001c-32 (antibody, V domains shown)
VH: B4 VH with T24A, G44R, V68S, I70L
VL: B4 VL

Molecular target: T1, extracellular domain of human CD73 …
Experiment: ELISA
For B1, the EC50 was 0.05 nM.
B2 was tested, and the EC50 was 0.063 nM.
Work on B3 yielded an EC50 of 0.051 nM.

Molecular target: T2, CD73 on the surface of human tumor cells
Experiment: FACS; NCI-H1299 cells, left table
B4 showed an EC50 of 1.28 nM.
With B5 the EC50 was 1.3 nM.
With B6 the EC50 was 1.41 nM.
For B7, the EC50 was 1.33 nM.
For B8, the EC50 was 1.42 nM.

Molecular target: T2, CD73 on the surface of human tumor cells
Experiment: FACS; NCI-H1299 cells, left table
Remark: another data set of the same source
Binder B9 has an EC50 of 0.73 nM.

Molecular target: T1, extracellular domain of human CD73 …
Experiment: ELISA
Remark: another data set of the same source
In the case of B10, the EC50 is reported as 0.109 nM.
B4 was tested, and the EC50 was 0.026 nM.
In the case of B5, the EC50 is reported as 0.033 nM.
For B11, the EC50 was 0.139 nM.
Binder B6 has an EC50 of 0.037 nM.
B12 was tested, and the EC50 was 0.033 nM.
For B7, the EC50 was 0.108 nM.
Work on B13 yielded an EC50 of 0.02 nM.
B14 gave an EC50 of 0.107 nM.
Work on B8 yielded an EC50 of 0.032 nM.
For B9, the EC50 was 0.096 nM and 0.103 nM.

Molecular target: T2, CD73 on the surface of human tumor cells
Experiment: FACS; NCI-H1299 cells, right table
For B9, the EC50 was 0.573 nM.

Molecular target: T2, CD73 on the surface of human tumor cells
Experiment: FACS; MDA-MB-231 cells, left table
B9 showed an EC50 of 0.557 nM.

Molecular target: T2, CD73 on the surface of human tumor cells
Experiment: inhibition of cell-surface CD73 enzyme activity; right panel
In the case of B9, the IC50 is reported as 0.429 nM.

Molecular target: T3, Carbon-terminal polyhistidine-labeled …
Experiment: enzyme inhibition; right table
Work on B10 yielded an IC50 of 0.28 nM.
B4 showed an IC50 of 0.04 nM.
B5 was tested, and the IC50 was 0.07 nM.
B11 was tested, and the IC50 was 0.132 nM.
In the case of B7, the IC50 is reported as 0.1 nM.
B14 was tested, and the IC50 was 0.11 nM.
B9 gave an IC50 of 0.055 nM.

Molecular target: T1, extracellular domain of human CD73 …
Experiment: enzyme inhibition; left table
B4 showed an IC50 of 0.02 nM.
B5 was tested, and the IC50 was 0.03 nM.
B6 gave an IC50 of 0.03 nM.
B12 showed an IC50 of 0.3 nM.
B7 gave an IC50 of 0.06 nM.
For B13, the IC50 was 0.12 nM.
B8 showed an IC50 of 0.03 nM.

Molecular target: T2, CD73 on the surface of human tumor cells
Experiment: FACS; MDA-MB-231 cells, left table
Remark: another data set of the same source
For B4, the EC50 was 0.432 nM.
Binder B5 has an EC50 of 0.4 nM.
With B6 the EC50 was 0.446 nM.
Binder B12 has an EC50 of 0.435 nM.
B7 was tested, and the EC50 was 0.449 nM.
B13 was tested, and the EC50 was 0.205 nM.
B8 gave an EC50 of 0.522 nM.

Molecular target: T2, CD73 on the surface of human tumor cells
Experiment: FACS; MDA-MB-231 cells, right table
With B10 the EC50 was 0.514 nM.
With B5 the EC50 was 0.593 nM.
For B11, the EC50 was 0.695 nM.
Work on B7 yielded an EC50 of 0.626 nM.
In the case of B14, the EC50 is reported as 0.608 nM.

Molecular target: T1, extracellular domain of human CD73 …
Experiment: enzyme inhibition; right table
Work on B10 yielded an IC50 of 0.12 nM.
Work on B4 yielded an IC50 of 0.03 nM.
Binder B5 has an IC50 of 0.04 nM.
For B11, the IC50 was 0.128 nM.
In the case of B7, the IC50 is reported as 0.06 nM.
Work on B14 yielded an IC50 of 0.07 nM.

Molecular target: T3, Carbon-terminal polyhistidine-labeled …
Experiment: enzyme inhibition; left table
In the case of B4, the IC50 is reported as 0.04 nM.
B5 showed an IC50 of 0.07 nM.
Binder B6 has an IC50 of 0.03 nM.
In the case of B12, the IC50 is reported as 0.34 nM.
Work on B7 yielded an IC50 of 0.11 nM.
B13 was tested, and the IC50 was 0.37 nM.
B8 was tested, and the IC50 was 0.08 nM.
B9 was tested, and the IC50 was 0.044 nM.

Molecular target: T2, CD73 on the surface of human tumor cells
Experiment: FACS; MDA-MB-231 cells, right table
Remark: another data set of the same source
Work on B9 yielded an EC50 of 0.557 nM.

Molecular target: T2, CD73 on the surface of human tumor cells
Experiment: FACS; NCI-H1299 cells, right table
Remark: another data set of the same source
For B10, the EC50 was 1.24 nM.
Work on B5 yielded an EC50 of 1.48 nM.
Work on B11 yielded an EC50 of 1.61 nM.
With B7 the EC50 was 1.16 nM.
Binder B14 has an EC50 of 1.62 nM.

Molecular target: T2, CD73 on the surface of human tumor cells
Experiment: inhibition of cell-surface CD73 enzyme activity; left panel
B9 gave an IC50 of 0.448 nM.

Source: US20210024646A1 (published 2021)
